In patent US5674712:

Target: sub-unit alpha of human chorionic gonadotropin (human) (UniProt P01215)
Assay: SPR (BIACORE), alpha hCG fixed to the sensor

Kdiss, fold against MAb 5E8: 300 times
B1: antibody scFv5E8 specific for sub-unit alpha of human chorionic gonadotropin (scFv)
scFv: QVQLQQSGAELMKPGASVKLTASCSGFSIKDTYMHWVKQRPEQGLEWIGRIDPANGNTKYDPKFQGKATITADTSSNTAYLQLSSLTSEDTAVYYCHRFEFAMDYWGQGTTVTVSSGGGGSGGGGSGGGGSDIQGTQSPASLVVSLGQRATISCRASKSVSASGYSYVNWYQQKPGQPPKLLIYLASNLESGVPARFSGSGSGTDFTLNIHPVEEEDAATYYCQHSRELPLTFGAGTKLEISMEELMIEGR
